# Source: publication PMC12167799, “The role of human Shu complex in ATP-dependent regulation of RAD51 filaments during homologous recombination–associated DNA damage response” (The Journal of Biological Chemistry, 2025)
# Target: human RAD51 (human) (UniProt Q06609)
# Sequence (Q06609 whole entry): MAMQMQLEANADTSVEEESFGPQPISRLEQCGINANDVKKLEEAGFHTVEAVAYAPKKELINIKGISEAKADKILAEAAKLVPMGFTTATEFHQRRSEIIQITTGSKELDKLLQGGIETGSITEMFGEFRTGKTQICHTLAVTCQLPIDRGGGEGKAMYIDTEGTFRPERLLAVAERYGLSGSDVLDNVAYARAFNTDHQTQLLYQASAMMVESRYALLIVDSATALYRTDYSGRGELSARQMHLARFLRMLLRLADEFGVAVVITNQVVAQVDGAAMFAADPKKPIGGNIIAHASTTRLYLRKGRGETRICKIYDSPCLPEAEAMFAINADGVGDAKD
substance,measurement,value
"human Shu complex hSWS1-SWSAP1, wildtype (from UniProt Q19AV6 1-140; Q6NVH7 1-250)","fluorescence intensity of 5′-6-FAM-labeled RAD51-ssDNA filaments (1 μM RAD51, 15 nM poly-dT39, 2 mM ATP) after addition of 50 nM hSWS1-SWSAP1, 10-s intervals over 60 s",40%
